Test results reported in patent US20100016697.

Assays:
[1] = system: LTBP-1 fluorogenic peptide SCJJ-1
[2] = system: MT1-MMP specific fluorogenic substrate MCA-Pro-Leu-Ala-Cys(p-OmeBz)-Trp-Ala-Arg(Dpa)-NH2

Chain of MMP-9 catalytic domain (part of the MMP-2/-9 catalytic domain cocktail) (chain, as listed by the source): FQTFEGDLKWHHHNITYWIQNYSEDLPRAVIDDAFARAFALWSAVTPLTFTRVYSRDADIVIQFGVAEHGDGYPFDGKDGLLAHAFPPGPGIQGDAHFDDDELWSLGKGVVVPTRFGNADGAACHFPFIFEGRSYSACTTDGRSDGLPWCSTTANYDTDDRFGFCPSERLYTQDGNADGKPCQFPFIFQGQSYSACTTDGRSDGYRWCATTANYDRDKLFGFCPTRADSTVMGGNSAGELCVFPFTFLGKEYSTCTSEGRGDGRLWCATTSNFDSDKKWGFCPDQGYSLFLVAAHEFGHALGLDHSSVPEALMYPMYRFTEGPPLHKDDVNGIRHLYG
Chain of MMP-9 (part of MMP-2/9, Chemicon) (chain, as listed by the source): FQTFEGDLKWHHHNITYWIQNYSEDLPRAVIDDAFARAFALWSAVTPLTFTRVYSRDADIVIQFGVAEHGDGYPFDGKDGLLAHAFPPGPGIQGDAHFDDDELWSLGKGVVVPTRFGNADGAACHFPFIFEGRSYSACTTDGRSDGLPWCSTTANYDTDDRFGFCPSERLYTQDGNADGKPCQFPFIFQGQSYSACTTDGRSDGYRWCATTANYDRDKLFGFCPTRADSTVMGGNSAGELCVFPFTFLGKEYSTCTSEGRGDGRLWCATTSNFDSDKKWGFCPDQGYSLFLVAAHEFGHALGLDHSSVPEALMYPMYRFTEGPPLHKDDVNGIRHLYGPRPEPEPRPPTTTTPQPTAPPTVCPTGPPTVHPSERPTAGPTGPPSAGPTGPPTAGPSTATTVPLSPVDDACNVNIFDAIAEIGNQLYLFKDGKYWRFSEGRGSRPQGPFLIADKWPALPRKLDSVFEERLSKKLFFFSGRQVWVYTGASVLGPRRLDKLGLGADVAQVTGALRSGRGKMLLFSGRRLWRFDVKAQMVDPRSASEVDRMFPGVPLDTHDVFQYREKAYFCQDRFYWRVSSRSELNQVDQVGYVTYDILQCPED
Chain of MMP-8 (Calbiochem) (chain, as listed by the source): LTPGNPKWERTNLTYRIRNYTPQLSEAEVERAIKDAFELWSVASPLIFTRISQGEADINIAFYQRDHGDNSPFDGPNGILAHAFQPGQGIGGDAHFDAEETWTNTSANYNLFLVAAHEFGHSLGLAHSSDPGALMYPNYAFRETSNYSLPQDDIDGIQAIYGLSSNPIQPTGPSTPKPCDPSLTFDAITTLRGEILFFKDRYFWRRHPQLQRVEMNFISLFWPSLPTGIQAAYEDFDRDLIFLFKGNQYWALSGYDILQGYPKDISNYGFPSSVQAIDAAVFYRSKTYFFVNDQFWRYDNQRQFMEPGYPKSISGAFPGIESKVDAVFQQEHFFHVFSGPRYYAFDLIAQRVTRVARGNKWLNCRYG
Chain of MMP-2 catalytic domain (part of the MMP-2/-9 catalytic domain cocktail) (chain, as listed by the source): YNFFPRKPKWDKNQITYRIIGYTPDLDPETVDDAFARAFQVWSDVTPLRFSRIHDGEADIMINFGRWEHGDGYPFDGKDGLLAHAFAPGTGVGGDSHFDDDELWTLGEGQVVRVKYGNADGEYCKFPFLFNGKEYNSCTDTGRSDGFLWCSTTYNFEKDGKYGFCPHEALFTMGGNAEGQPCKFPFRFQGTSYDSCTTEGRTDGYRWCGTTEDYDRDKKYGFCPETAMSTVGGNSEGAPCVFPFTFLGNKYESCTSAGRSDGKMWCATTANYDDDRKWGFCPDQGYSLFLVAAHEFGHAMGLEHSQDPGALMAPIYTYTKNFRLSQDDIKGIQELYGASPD

Substance: MMP-2 catalytic domain (part of the MMP-2/-9 catalytic domain cocktail)
- fluorescent emission from the LTBP-1 substrate [1]: Incubation with an MMP-2/-9 catalytic domain cocktail (10 ug/mL) caused no fluorescent emission from the LTBP-1 substrate.

Substance: MMP-8 (Calbiochem)
- fluorescence emission (cleavage of the quenched fluorogenic substrate) [2]: Incubation with MMP-2/9, MMP-8, or ADAM-10 and 17 alone failed to cause fluorescence emission from the MT1-MMP substrate.

Substance: MMP-9 (part of MMP-2/9, Chemicon)
- fluorescence emission (cleavage of the quenched fluorogenic substrate) [2]: Incubation with MMP-2/9, MMP-8, or ADAM-10 and 17 alone failed to cause fluorescence emission from the MT1-MMP substrate.

Substance: MMP-9 catalytic domain (part of the MMP-2/-9 catalytic domain cocktail)
- fluorescent emission from the LTBP-1 substrate [1]: Incubation with an MMP-2/-9 catalytic domain cocktail (10 ug/mL) caused no fluorescent emission from the LTBP-1 substrate.
